Assay results as given in publication PMC7948467, “Discovery of an ultraspecific triuret hydrolase (TrtA) establishes the triuret biodegradation pathway” (The Journal of Biological Chemistry, 2020).

B1: TrtA (Herbaspirillum sp. BH-1) (protein)
chain: MIRIDATPYPYQFHPRSTALVVIDMQRDFIEEGGFGSALGNDVRPLAAIVPTVAALLQLAREAGMLVVHTRESHLPDLSDCPRSKRLRGNPTLGIGDVGPMGRILVQGEPGNQILPQLAPVEGELVIDKPGKGAFYATDLHAQLQERRITHLLVAGVTTEVCVQTSMREANDRGYECLVIEDACASYFPDFHRITLEMLTAQGGIVGWRTPLAQLQAGVAAYTGENP
notes: N-terminal 6xHis tag and thrombin site kept, pET28a, E. coli BL21(DE3), codon-optimized; subunit 24 kDa, homodimer
B2: TrtA +Cleaved His-tag (Herbaspirillum sp. BH-1) (protein)
chain: MIRIDATPYPYQFHPRSTALVVIDMQRDFIEEGGFGSALGNDVRPLAAIVPTVAALLQLAREAGMLVVHTRESHLPDLSDCPRSKRLRGNPTLGIGDVGPMGRILVQGEPGNQILPQLAPVEGELVIDKPGKGAFYATDLHAQLQERRITHLLVAGVTTEVCVQTSMREANDRGYECLVIEDACASYFPDFHRITLEMLTAQGGIVGWRTPLAQLQAGVAAYTGENP
notes: N-terminal 6xHis tag cut by thrombin, E. coli BL21(DE3); homodimer ~48 kDa; crystal rows placed here, but may be the C-terminal deletion construct

Substrate: NC(=O)NC(=O)NC(N)=O
Test: ammonia release, Berthelot assay
Assay type: biochemical, Herbaspirillum sp. BH-1
Settings: phosphate buffer
[1] = pH 6.5 (optimum), 25 °C, His-tag kept

| Protein | Km [1] | kcat [1] | kcat/Km [1] | Km (pH 8, 25 °C) | kcat (pH 8, 25 °C) | kcat/Km (pH 8, 25 °C) |
| --- | --- | --- | --- | --- | --- | --- |
| B1 | 21 ± 3 µM | 11 ± 1 s⁻¹ | 530000 ± 100000 M⁻¹ s⁻¹ |  |  |  |
| B2 |  |  |  | 15 ± 3 µM | 8.8 ± 0.4 s⁻¹ | 610000 ± 160000 M⁻¹ s⁻¹ |
